Source: patent publication US5910570A, “Cloned DNA encoding a UDP-GalNAc: polypeptide N-acetylgalactosaminy-ltransferase” (Pharmacia & Upjohn Company, priority 1997, dated 1999)
One block for each molecule: values may come before it.

Tests used:
[1] = target: T1, bovine colostrum GalNAc-transferase (Bos taurus, UniProt Q07537); assay: Transfer of N-acetylgalactosamine to protein acceptors; format: biochemical; conditions: for Product formed, Native: native acceptor 65 μM; for Product formed, Native / Product formed, Reduced and carboxymethylated: enzyme approx. 65 mU/ml; for Product formed, Reduced and carboxymethylated: reduced and carboxymethylated acceptor 65 μM
T1 construct: from tissue; host or cells: bovine colostrum
T1 sequence (Q07537 41-559 limits assumed): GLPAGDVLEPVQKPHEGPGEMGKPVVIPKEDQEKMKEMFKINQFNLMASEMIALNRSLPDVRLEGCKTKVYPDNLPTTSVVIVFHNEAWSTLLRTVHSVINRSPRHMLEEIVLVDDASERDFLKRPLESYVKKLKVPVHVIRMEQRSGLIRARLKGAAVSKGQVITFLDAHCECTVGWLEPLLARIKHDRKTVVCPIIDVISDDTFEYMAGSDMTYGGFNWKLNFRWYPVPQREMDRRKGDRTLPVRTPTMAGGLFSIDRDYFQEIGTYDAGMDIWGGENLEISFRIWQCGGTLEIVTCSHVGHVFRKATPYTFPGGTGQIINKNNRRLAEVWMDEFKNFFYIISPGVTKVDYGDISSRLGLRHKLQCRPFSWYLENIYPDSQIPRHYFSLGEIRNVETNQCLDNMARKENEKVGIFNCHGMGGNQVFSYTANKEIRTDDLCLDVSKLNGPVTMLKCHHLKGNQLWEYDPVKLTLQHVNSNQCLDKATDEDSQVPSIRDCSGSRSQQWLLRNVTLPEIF
Method: The above conclusions and the predictions of the specificity algorithm are validated experimentally by studying the ability of bovine colostrum GalNAc-transferase to transfer N-acetylgalactosamine to a variety of acceptors, both native proteins and synthetic acceptor peptides. The transfer of N-acetylgalactosamine to protein acceptors is assayed as described by Elhammer and Kornfeld, 1986, with minor modifications. The concentration of UDP-GalNAc is saturating in all assays; a Km of 8 μM is reported for bovine colostrum GalNAc-transferase (Elhammer and Kornfeld, 1986).
The transfer of N-acetylgalactosamine to protein acceptors was assayed
under standard conditions (see Material and Methods). The acceptor
concentration was 65 μM, the enzyme concentration approximately 65
mU/ml and assay time was 60 minutes. The transfer to both native and
reduced-carboxymethylated acceptors was assayed.

[2] = system: bovine apomucin; assay: Specific activity of the purified enzyme preparation using bovine apomucin as acceptor; format: biochemical
Method: The standard assay for UDP-GalNAc:polypeptide, N-acetylgalactosaminyltransferase activity during purification contained the following components in a final volume of 80 μl: 50 mM Imidazole pH 7.2, 10 mM MnCl2, 0.5% Triton X-100, 15 μM UDP-GalNAc, UDP[1-^3 H-]GalNAc (27,000 cpm/assay), 0.15 mg/ml apomucin and varying amounts of enzyme (see individual experiments). The reaction mixture is incubated at 37° C. for 5-10 minutes (see individual experiments) and the reaction product is TCA precipitated and radioactivity measured as described. Assays for activity in lysates from Spodoptera frugiperda cell line 9 (hereinafter referred to as Sf9 cells) are carried out as described by Thomsen et al., (1990).

- Product formed, column Reduced and carboxymethylated (acceptor not reduced and carboxymethylated in this experiment) ([1]; footnote a: not reduced and carboxymethylated, 65 μM, 60 minutes): 21.3 nmol/min/mg
- Product formed, Native ([1]; 60 minutes): 22.2 nmol/min/mg
B1: Myelin basic protein: efficient acceptor for GalNAc-transferase, included as a positive control (protein, UniProt P02686 1-304, looked up)
Myelin basic protein: MGNHAGKRELNAEKASTNSETNRGESEKKRNLGELSRTTSEDNEVFGEADANQNNGTSSQDTAVTDSKRTADPKNAWQDAHPADPGSRPHLIRLFSRDAPGREDNTFKDRPSESDELQTIQEDSAATSESLDVMASQKRPSQRHGSKYLATASTMDHARHGFLPRHRDTGILDSIGRFFGGDRGAPKRGSGKDSHHPARTAHYGSLPQKSHGRTQDENPVVHFFKNIVTPRTPPPSQGKGRGLSLSRFSWGAEGQRPGFGYGGRASDYKSAHKGFKGVDAQGTLSKIFKLGGRDSRSGSPMARR

- transfer rate, times slower as compared to myelin basic protein ([1]; denatured (reduced and carboxymethylated) acceptor): 35 times
- Product formed, Native ([1]; 60 minutes): < 0.1 nmol/min/mg
- Product formed, Reduced and carboxymethylated ([1]; 60 minutes): 0.6 nmol/min/mg
B2: Subtilisin: bacterial protein tested as acceptor (protein, UniProt P00782 108-382, looked up)
Subtilisin BPN': AQSVPYGVSQIKAPALHSQGYTGSNVKVAVIDSGIDSSHPDLKVAGGASMVPSETNPFQDNNSHGTHVAGTVAALNNSIGVLGVAPSASLYAVKVLGADGSGQYSWIINGIEWAIANNMDVINMSLGGPSGSAALKAAVDKAVASGVVVVAAAGNEGTSGSSSTVGYPGKYPSVIAVGAVDSSNQRASFSSVGPELDVMAPGVSIQSTLPGNKYGAYNGTSMASPHVAGAAALILSKHPNWTNTQVRSSLENTTTKLGDSFYYGKGLINVQAAAQ

Second part, the molecule before the results:

B3: Bovine rhodanese: cytoplasmic protein with predicted glycosylation sites, tested as acceptor (protein)
chain: VHQVLYRALVSTKWLAESVRAGKVGPGLRVLDASWYSPGTREARKEYLERHVPGASFFDIEECRDKASPYEVMLPSEAGFADYVGSLGISNDTHVVVYDGDDLGSFYAPRVWWMFRVFGHRTVSVLNGGFRNWLKEGHPVTSEPSRPEPAIFKATLNRSLLKTYEQVLENLESKRFQLVDSRAQGRYLGTQPEPDAVGLDSGHIRGSVNMPFMNFLTEDGFEKSPEELRAMFEAKKVDLTKPLIATCRKGVTACHIALAAYLCGKPDVAIYDGSWFEWFHRAPPETWVSQGKGGKA
- Product formed, Native ([1]; 60 minutes): < 0.1 nmol/min/mg
- Product formed, Reduced and carboxymethylated ([1]; 60 minutes): 3.3 nmol/min/mg

B4: GalNAcTs: secreted, soluble recombinant form of bovine GalNAc-transferase expressed in Sf9 cells (protein)
chain: DPSPALEPVQKPHEGPGEMGKPVVIPKEDQEKMKEMFKINQFNLMASEMIALNRSLPDVRLEGCKTKVYPDNLPTTSVVIVFHNEAWSTLLRTVHSVINRSPRHMLEEIVLVDDASERDFLKRPLESYVKKLKVPVHVIRMEQRSGLIRARLKGAAVSKGQVITFLDAHCECTVGWLEPLLARIKHDRKTVVCPIIDVISDDTFEYMAGSDMTYGGFNWKLNFRWYPVPQREMDRRKGDRTLPVRTPTMAGGLFSIDRDYFQEIGTYDAGMDIWGGENLEISFRIWQCGGTLEIVTCSHVGHVFRKATPYTFPGGTGQIINKNNRRLAEVWMDEFKNFFYIISPGVTKVDYGDISSRLGLRHKLQCRPFSWYLENIYPDSQIPRHYFSLGEIRNVETNQCLDNMARKENEKVGIFNCHGMGGNQVFSYTANKEIRTDDLCLDVSKLNGPVTMLKCHHLKGNQLWEYDPVKLTLQHVNSNQCLDKATDEDSQVPSIRDCSGSRSQQWLLRNVTLPEIF
- specific activity of the purified enzyme preparation [2]: approximately 2,160 U/mg protein
